{"source": "paper PMC4862330", "target": "F-actin (polymerized rabbit skeletal muscle G-actin) (rabbit) (UniProt P68135)", "assay": "co-sedimentation", "data": [{"substance": "talin ABS2 6× mutant (K922E/Q923E/Q930E/K1500E/R1510E/K1522E) (from UniProt P26039 1-2541) (domain or fragment)", "values": [{"measurement": "percent decrease in F-actin binding compared with wild type", "value": 60, "unit": "%"}]}]}
